This test addresses T1, Aβ40 synthetic peptide (human, UniProt P05067 672-711).
T1 construct: β amyloid, the isoform ending at the 40th amino acid (Aβ40), cut product of the amyloid precursor protein; numbers count on: the Aβ peptide; Pre-incubated at 16.2 uM at 37 C for 2 h before mixing 1:1 (volume) with amylin and incubating 24 h at 37 C; also called β amyloid; human Aβ40; source: synthetic peptide; bought: Anaspec (AS-24235)
Kind of test: ELISA; amylin-Aβ sandwich ELISA on solutions of peptides co-incubated at 37 C for 24 h in PBS with 0.05% sodium azide (30 uM amylin and 16.2 uM Aβ mixed 1:1); capture by the polyclonal anti-amylin P2 antibody, detection by an HRP-conjugated anti-Aβ antibody. The settings on record: both partners purified. (In general: An ELISA detects its analyte on a solid surface through an enzyme-linked reagent.)

B1: human amylin synthetic peptide (peptide, UniProt P10997 34-70, looked up)
peptide: KCNTATCATQRLANFLVHSSNNFGAILSSTNVGSNTY
notes: Amylin (islet amyloid polypeptide), human, synthetic peptide; Pre-incubated at 30 uM in PBS with 0.05% sodium azide at 37 C for 5 h before mixing with Aβ40; also called islet amyloid polypeptide; source: synthetic peptide; bought: Anaspec (AS-60254-1)
As to B1, the binding result is “binds”.

These data come from PMC10192925, “Rapid, scalable assay of amylin-β amyloid co-aggregation in brain tissue and blood” (The Journal of Biological Chemistry, 2023).
